Test [1] addresses T1, human Galectin-9 CRD2 (residues 218-355), biotinylated (human, UniProt O00182 218-355, biotinylated in vitro with BirA (Avitag)).
T1 construct: also called wild type human Galectin-9 CRD2; not shown: hexahistidine tag, Avitag and TEV cleavage site upstream of the cloned gene (pHBT vector)
In words: bead-based binding assay.

Test [2] deals with T2, human Galectin-9 CRD1 (residues 1-148), biotinylated (human, UniProt O00182 1-148, biotinylated in vitro with BirA (Avitag)).
T2 construct: Made as GST fusion, GST cleaved off with thrombin, gel filtered, biotinylated; not shown: Avitag upstream of the cloned gene (pGEX vector), left after thrombin cleavage from GST
Kind of test: bead-based binding assay, flow cytometry. As to the method:
(§1) The affinities of the antibodies were assessed using a bead-based assay as previously described (Nishikori et al., J Mol Biol, 2012, 424, 391-399) and surface plasmon resonance (SPR). In the bead-based assay, a biotinylated protein (either a Galectin-9 sample or a Fab sample) was immobilized on streptavidin-coated Dynabeads M280 via the biotin-streptavidin interaction. After blocking the excess biotin-binding sites on the beads using unconjugated biotin, binding titration was performed by incubating the second component (i.e., Fab for immobilized Galectin-9 or vice versa), followed by quantification using a dye-labeled neutravidin (ThermoFisher) and flow cytometry analysis. In experiments where the second component is an IgG, a dye-labeled anti-human IgG or anti-mouse IgG antibody was used for detection.
A general note: In flow cytometry, cells or beads pass a laser one at a time.

The target in test [3] is T1, human Galectin-9 CRD2 (residues …). Kind of test: phage ELISA, phage-displayed Fab. The procedure:
FIG. 13 is a graph showing a binding characterization of G9.2 Fab clone for wild-type Galectin-9 CRD2 or the […] mutant using phage ELISA. Binding of Fab clones to human Galectin-9 CRD2 assayed using phage ELISA.
Potential additional epitopes were explored using additional clones that bind to Galectin-9 CRD2. A phage display library selection using a modified scheme so as to enrich clones that bind to an epitope that is distinct from that of G9.2-17 was performed.
(ELISA stands for enzyme-linked immunosorbent assay.)

Test [4] addresses T2, human Galectin-9 CRD1 (residues 1-148), …. In words: bead-based binding assay, purified Fab (FIG. 5). The procedure:
as §1

Test [5] has as its target T1, human Galectin-9 CRD2 (residues …). In words: SPR, Fab over CRD2 on Avicap chip (OneStep). From the text:
FIG. 12 contains charts showing surface plasmon resonance analyses of Fab G9.2-17 (top) and Fab G9.2.17mut6 (bottom) binding to the CRD2 of human (left) and mouse (right) Galectin-9. Human or mouse Galectin-9 CRD2 was immobilized on an Avicap chip preloaded with neutravidin on a Pall ForteBio Pioneer instrument. Fab samples were then flowed using the OneStep method. The binding and dissociation phases of the experiments are marked in the top panels.
In SPR experiments, a biotinylated Galectin-9 sample was immobilized on an Avicap chip (Pall ForteBio) that had been preloaded with neutravidin (ThermoFisher). Antibody samples were flowed using the OneStep method on a Pioneer SPR instrument (Pall ForteBio) and the results are provided in FIG. 6.

In patent US20220340666A1 (NEW YORK UNIVERSITY, published 2022) one finds binding result and Kd data, which are given here for six molecules.

T2 sequence (O00182 1-148): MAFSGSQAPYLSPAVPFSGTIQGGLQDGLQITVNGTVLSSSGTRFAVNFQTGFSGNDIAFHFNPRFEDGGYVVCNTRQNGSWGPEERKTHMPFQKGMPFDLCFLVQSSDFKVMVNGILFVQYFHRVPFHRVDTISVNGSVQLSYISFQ
T1 sequence (O00182 218-355 limits assumed): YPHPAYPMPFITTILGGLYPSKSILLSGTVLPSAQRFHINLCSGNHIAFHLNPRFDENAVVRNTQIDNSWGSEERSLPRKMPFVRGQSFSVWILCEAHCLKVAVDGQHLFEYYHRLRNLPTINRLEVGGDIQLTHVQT

B1: G9.1-8m14 mIgG2a (antibody, V domains shown)
VH: EVQLVESGGGLVQPGGSLRLSCAASGFTVSSSSIHWVRQAPGKGLEWVAYIYPYSSSSSYADSVKGRFTISADTSKNTAYLQMNSLRAEDTAVYYCARYSTYKWVWGMDYWGQGTLVTVSS
VL: DIQMTQSPSSLSASVGDRVTITCRASQSVSSAVAWYQQKPGKAPKLLIYSASSLYSGVPSRFSGSRSGTDFTLTISSLQPEDFATYYCQQSYYDSNPITFGQGTKVEIKR
notes: also called G9.1-8mut14
Broadly, the Kd is the free concentration of one partner at which half of the binding sites on the other are occupied at equilibrium, for simple one-to-one binding. Low values mean a tighter complex, high ones a looser complex. With B1, in test [1], the binding result is “no binding”. In test [2], binding was put at a Kd of 2.01 nM.

B2: G9.1-8m12 mIgG2a (antibody, V domains shown)
VH: EVQLVESGGGLVQPGGSLRLSCAASGFTVSSSSIHWVRQAPGKGLEWVAYIYPYSSSSSYADSVKGRFTISADTSKNTAYLQMNSLRAEDTAVYYCARYSTYSSSKWVWGMDYWGQGTLVTVSS
VL: DIQMTQSPSSLSASVGDRVTITCRASQSVSSAVAWYQQKPGKAPKLLIYSASSLYSGVPSRFSGSRSGTDFTLTISSLQPEDFATYYCQQSYYDSNPITFGQGTKVEIKR
notes: also called G9.1-8mut12
For B2, the binding result in test [1] is recorded as “no binding”. This molecule also showed a Kd in test [2] of 0.32 nM.

B3: G9.2-15 Fab (Fab, V domains shown)
VH: EVQLVESGGGLVQPGGSLRLSCAASGFTVSSSSIHWVRQAPGKGLEWVASIYSSSGYTSYADSVKGRFTISADTSKNTAYLQMNSLRAEDTAVYYCARNVENYPYWAWPWGYYGAIDYWGQGTLVTVSS
VL: DIQMTQSPSSLSASVGDRVTITCRASQSVSSAVAWYQQKPGKAPKLLIYSASSLYSGVPSRFSGSRSGTDFTLTISSLQPEDFATYYCQQSSWGLITFGQGTKVEIKR
notes: Avitag at the C-terminus of the heavy chain, biotinylated when required; also called Fab G9.2-15
As for B3, the binding result in test [3] is “binds”.

B4: G9.1-6 Fab (Fab, V domains shown)
VH: EVQLVESGGGLVQPGGSLRLSCAASGFTLSSSSIHWVRQAPGKGLEWVASIYSSYGSTSYADSVKGRFTISADTSKNTAYLQMNSLRAEDTAVYYCARSSHWYMYWSYWGWYIGMDYWGQGTLVTVSS
VL: DIQMTQSPSSLSASVGDRVTITCRASQSVSSAVAWYQQKPGKAPKLLIYSASSLYSGVPSRFSGSRSGTDFTLTISSLQPEDFATYYCQQYHSSLFTFGQGTKVEIKR
notes: Avitag at the C-terminus of the heavy chain, biotinylated when required
Consider B4, for which the binding result in test [4] is listed as “binds”.

B5: G9.2-17 Fab (Fab, V domains shown)
VH: EVQLVESGGGLVQPGGSLRLSCAASGFTVSSSSIHWVRQAPGKGLEWVAYISSSSGYTYYADSVKGRFTISADTSKNTAYLQMNSLRAEDTAVYYCARYWSYPSWWPYRGMDYWGQGTLVTVSS
VL: DIQMTQSPSSLSASVGDRVTITCRASQSVSSAVAWYQQKPGKAPKLLIYSASSLYSGVPSRFSGSRSGTDFTLTISSLQPEDFATYYCQQSSTDPITFGQGTKVEIKR
notes: Avitag at the C-terminus of the heavy chain, biotinylated when required; also called Fab G9.2-17
In the case of B5, the binding result in test [3] is “binds”.

B6: G9.2-17mut6 Fab (Fab, V domains shown)
VH: EVQLVESGGGLVQPGGSLRLSCAASGFTVSSSSIHWVRQAPGKGLEWVAYISSSSGYTYYADSVKGRFTISADTSKNTAYLQMNSLRAEDTAVYYCARYWSYPSWSPYRGMDYWGQGTLVTVSS
VL: DIQMTQSPSSLSASVGDRVTITCRASQSVSSAVAWYQQKPGKAPKLLIYSASSLYSGVPSRFSGSRSGTDFTLTISSLQPEDFATYYCQQSSTDPITFGQGTKVEIKR
notes: Purified Fab; point mutant of G9.2-17 in CDR-H3; also called Fab G9.2-17mut6; G9.2-17m6
B6: the binding result in test [5] was “binds”.
